Data taken from patent US20040137643A1, “Immunodetection and quantification methods” (priority 2002, published 2004).
“And” between values parts separate entries of the source, which are not always exact repeats. Equal entries are not always repeated. Where two headings read alike, the source gives them in different places.

Experiment: C4H enzyme assay: para-hydroxylation of cinnamic acid by yeast microsomes, HPLC quantification of p-coumarate
Type: biochemical
Conditions: for Km: Arabidopsis C4H in WAT11 yeast microsomes, substrate cinnamic acid; for Turnover (min^−1 ± SD), CO difference spectrum: P450 concentration from CO difference spectroscopy; for turnover rate, calculated using P450 concentrations from CO difference spectroscopy: spectroscopic P450 quantification
Procedure: C4H assays were carried out in the presence of various concentrations of cinnamic acid as previously described (Humphreys et al., 1999). Briefly, an NADPH regenerating system consisting of 1 mM NADP^+, 10 mM glucose-6-phosphate, and 1 unit of glucose-6-phosphate dehydrogenase (Sigma, St. Louis, Mo.) was pre-incubated at 30° C. for 5 min to generate NADPH in a final volume of 450 PL of assay buffer. Assays were initiated by the addition of 50 μL of appropriately diluted microsomes and were incubated at 30° C. for 20 min before the reactions were stopped with 100 μL of 3N HCl. Samples were centrifuged for 20 min at 14,000×g and then analyzed by HPLC (Shimadzu Corp., Kyoto, Japan) using a Microsorb-MV C-18 column (Varian Analytical Instruments, Walnut Creek, Calif.) using the following method: solvent A, 1.5% acetic acid in water; solvent B, acetonitrile; flow rate of 1 mL min^−1; 0 to […] in 1.5 min, […], 35 to 100% B in 1 min, 100% B for 5 min. Reaction product was quantified by UV detection at 308 nm. Assays conducted with microsomes isolated from yeast transformed with pYeDP60 served as negative controls.
To evaluate the impact of introducing an amino-terminal FLAG epitotope on C4H enzymatic activity, kinetic parameters of both native and FLAG-C4H were determined using the same microsomal fractions used for protein quantification. It is important to note that the WAT11 yeast strain was chosen because this strain is engineered to express the Arabidopsis P450 reductase gene ATR1 under the control of the same galactose promoter used to drive P450 expression, eliminating the need to reconstitute the P450/P450 reductase system. Consistent with subcellular targeting of wild-type C4H expressed in yeast, both the native and FLAG-C4H activity was found in the microsomal fraction. […] Turnover rates of native and FLAG-C4H were also evaluated, using both spectroscopic and immunological P450 quantitation. When calculated using P450 concentrations obtained from CO difference spectroscopy, native C4H and FLAG-C4H turnover rates were determined to be 28±0.1 and 83±2.0 min^1, respectively. This difference, although significant, may be associated with variability in reductase activity in this heterologous expression system (data not shown). In comparison to CO difference spectroscopy, the lower concentration of FLAG-C4H obtained by Midwestern blot gives a correspondingly higher turnover rate of 380±7 min^−1.

[1] = P450 concentration from Midwestern blot

Molecule	Km (n=3, read-out: Km app. (±SD)) [µM]	Km (read-out: Km^aPP) [µM]	Turnover (min^−1 ± SD), CO difference spectrum [min⁻¹]	turnover rate, calculated using P450 concentrations from CO difference spectroscopy [min^1]	Turnover (min^−1 ± SD), Midwestern blot [1] [min⁻¹]	turnover rate, calculated using immunological quantification [1] [min^1]	Turnover (min^−1 ± SD), Midwestern blot (P450 concentration from Midwestern blot, listed as FLAG-C4H) [min⁻¹]	turnover rate, calculated using P450 concentrations from CO difference spectroscopy (listed as FLAG-C4H)
Wild type C4H: Arabidopsis P450 cinnamate 4-hydroxylase (C4H) expressed in yeast from pYeDP60-C4H (protein, UniProt P92994 1-505, looked up) Trans-cinnamate …: MDLLLLEKSLIAVFVAVILATVISKLRGKKLKLPPGPIPIPIFGNWLQVGDDLNHRNLVDYAKKFGDLFLLRMGQRNLVVVSSPDLTKEVLLTQGVEFGSRTRNVVFDIFTGKGQDMVFTVYGEHWRKMRRIMTVPFFTNKVVQQNREGWEFEAASVVEDVKKNPDSATKGIVLRKRLQLMMYNNMFRIMFDRRFESEDDPLFLRLKALNGERSRLAQSFEYNYGDFIPILRPFLRGYLKICQDVKDRRIALFKKYFVDERKQIASSKPTGSEGLKCAIDHILEAEQKGEINEDNVLYIVENINVAAIETTLWSIEWGIAELVNHPEIQSKLRNELDTVLGPGVQVTEPDLHKLPYLQAVVKETLRLRMAIPLLVPHMNLHDAKLAGYDIPAESKILVNAWWLANNPNSWKKPEEFRPERFFEEESHVEANGNDFRYVPFGVGRRSCPGIILALPILGITIGRMVQNFELLPPPGQSKVDTSEKGGQFSLHILNHSIIVMKPRNC	0.7 ± 0.01	0.7 ± 0.01	28 ± 0.1	28±0.1				
FLAG-tagged C4H: amino-terminal FLAG-epitope tagged C4H expressed in yeast from pYeDP60-FC4H (protein, UniProt P92994 1-505, looked up, N-terminal FLAG tag) Trans-cinnamate …: MDLLLLEKSLIAVFVAVILATVISKLRGKKLKLPPGPIPIPIFGNWLQVGDDLNHRNLVDYAKKFGDLFLLRMGQRNLVVVSSPDLTKEVLLTQGVEFGSRTRNVVFDIFTGKGQDMVFTVYGEHWRKMRRIMTVPFFTNKVVQQNREGWEFEAASVVEDVKKNPDSATKGIVLRKRLQLMMYNNMFRIMFDRRFESEDDPLFLRLKALNGERSRLAQSFEYNYGDFIPILRPFLRGYLKICQDVKDRRIALFKKYFVDERKQIASSKPTGSEGLKCAIDHILEAEQKGEINEDNVLYIVENINVAAIETTLWSIEWGIAELVNHPEIQSKLRNELDTVLGPGVQVTEPDLHKLPYLQAVVKETLRLRMAIPLLVPHMNLHDAKLAGYDIPAESKILVNAWWLANNPNSWKKPEEFRPERFFEEESHVEANGNDFRYVPFGVGRRSCPGIILALPILGITIGRMVQNFELLPPPGQSKVDTSEKGGQFSLHILNHSIIVMKPRNC	1.1 ± 0.09	1.1 ± 0.09	83 ± 2		380 ± 7	380±7	380 ± 7	83±2.0 min^1 and 83±2 min^1
